Measurements reported in patent publication US20090118184A1 (UNIVERSITY OF ROCHESTER, published 2009).

Legend:
Experiment in all cases: cell-based or functional assay
[1] = target: T1, factor VIIIa A1/A3C1C2 dimer, D1795A (human, UniProt P00451 20-391; P00451 1709-2351)
T1 sequence 1: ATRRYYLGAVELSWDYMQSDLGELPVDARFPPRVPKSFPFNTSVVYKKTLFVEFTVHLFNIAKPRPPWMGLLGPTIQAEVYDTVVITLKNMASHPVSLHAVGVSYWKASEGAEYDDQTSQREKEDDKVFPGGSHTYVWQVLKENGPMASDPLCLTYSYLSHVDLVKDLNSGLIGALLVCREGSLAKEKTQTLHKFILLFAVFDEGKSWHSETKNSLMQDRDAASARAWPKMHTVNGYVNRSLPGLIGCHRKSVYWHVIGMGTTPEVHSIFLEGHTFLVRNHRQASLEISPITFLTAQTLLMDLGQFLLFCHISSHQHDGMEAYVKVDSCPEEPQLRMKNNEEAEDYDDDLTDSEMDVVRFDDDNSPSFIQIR
T1 sequence 2: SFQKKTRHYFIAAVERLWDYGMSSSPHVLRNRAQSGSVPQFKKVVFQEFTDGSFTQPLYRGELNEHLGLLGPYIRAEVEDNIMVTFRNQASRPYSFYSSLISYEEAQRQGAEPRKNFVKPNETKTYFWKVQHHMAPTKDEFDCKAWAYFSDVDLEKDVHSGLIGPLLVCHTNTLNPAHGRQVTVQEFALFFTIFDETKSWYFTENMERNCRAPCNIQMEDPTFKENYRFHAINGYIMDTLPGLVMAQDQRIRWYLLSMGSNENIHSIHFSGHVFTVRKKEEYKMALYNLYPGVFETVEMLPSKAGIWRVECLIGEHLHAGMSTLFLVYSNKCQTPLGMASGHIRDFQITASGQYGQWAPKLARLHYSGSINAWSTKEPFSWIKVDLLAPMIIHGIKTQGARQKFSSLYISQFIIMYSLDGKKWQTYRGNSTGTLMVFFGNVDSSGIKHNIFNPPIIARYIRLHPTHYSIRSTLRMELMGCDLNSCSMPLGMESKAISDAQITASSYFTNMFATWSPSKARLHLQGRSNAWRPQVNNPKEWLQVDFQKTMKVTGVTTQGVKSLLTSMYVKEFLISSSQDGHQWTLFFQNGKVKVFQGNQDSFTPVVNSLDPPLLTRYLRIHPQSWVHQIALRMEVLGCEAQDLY

[2] = target: T2, factor VIIIa A1/A3C1C2 dimer, S1791A (human, UniProt P00451 20-391; P00451 1709-2351)
T2 sequence 1: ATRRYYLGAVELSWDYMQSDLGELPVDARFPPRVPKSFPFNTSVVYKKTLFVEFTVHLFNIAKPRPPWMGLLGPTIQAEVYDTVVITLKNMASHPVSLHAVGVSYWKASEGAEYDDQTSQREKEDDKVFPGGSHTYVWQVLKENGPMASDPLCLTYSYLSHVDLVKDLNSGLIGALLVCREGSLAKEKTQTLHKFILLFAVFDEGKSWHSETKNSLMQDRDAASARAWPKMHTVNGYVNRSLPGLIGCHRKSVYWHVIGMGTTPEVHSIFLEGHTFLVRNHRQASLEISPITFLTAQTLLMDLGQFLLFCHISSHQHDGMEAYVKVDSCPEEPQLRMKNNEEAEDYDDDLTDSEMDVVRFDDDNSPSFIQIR
T2 sequence 2: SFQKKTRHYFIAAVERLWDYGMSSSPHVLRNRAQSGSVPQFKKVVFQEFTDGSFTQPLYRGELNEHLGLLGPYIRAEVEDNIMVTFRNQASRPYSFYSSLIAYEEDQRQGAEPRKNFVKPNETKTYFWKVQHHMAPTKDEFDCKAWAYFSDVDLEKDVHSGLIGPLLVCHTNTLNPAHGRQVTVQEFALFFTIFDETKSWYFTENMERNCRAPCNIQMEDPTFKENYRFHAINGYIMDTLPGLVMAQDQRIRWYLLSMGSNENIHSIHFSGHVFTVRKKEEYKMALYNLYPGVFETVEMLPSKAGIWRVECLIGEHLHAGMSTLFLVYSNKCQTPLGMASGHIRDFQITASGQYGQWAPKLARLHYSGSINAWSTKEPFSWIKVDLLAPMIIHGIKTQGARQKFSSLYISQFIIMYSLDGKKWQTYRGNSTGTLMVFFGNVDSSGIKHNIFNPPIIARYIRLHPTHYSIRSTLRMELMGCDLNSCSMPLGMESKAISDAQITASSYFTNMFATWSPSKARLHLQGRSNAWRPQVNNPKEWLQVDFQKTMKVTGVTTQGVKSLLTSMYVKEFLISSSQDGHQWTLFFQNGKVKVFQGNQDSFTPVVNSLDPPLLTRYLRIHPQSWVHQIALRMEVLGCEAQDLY

[3] = target: T3, factor VIIIa A1/A3C1C2 dimer, S313A (human, UniProt P00451 20-391; P00451 1709-2351)
T3 chain 1: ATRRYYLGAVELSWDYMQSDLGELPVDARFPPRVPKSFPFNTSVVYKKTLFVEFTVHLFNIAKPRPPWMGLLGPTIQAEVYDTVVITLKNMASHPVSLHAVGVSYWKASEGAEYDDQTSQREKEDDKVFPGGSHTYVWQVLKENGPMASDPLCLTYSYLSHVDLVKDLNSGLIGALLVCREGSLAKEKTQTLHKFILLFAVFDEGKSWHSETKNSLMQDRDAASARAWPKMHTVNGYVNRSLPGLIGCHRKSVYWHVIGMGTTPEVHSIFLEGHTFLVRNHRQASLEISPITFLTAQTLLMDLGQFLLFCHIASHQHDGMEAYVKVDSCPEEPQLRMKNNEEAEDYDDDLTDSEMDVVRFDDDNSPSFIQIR
T3 chain 2: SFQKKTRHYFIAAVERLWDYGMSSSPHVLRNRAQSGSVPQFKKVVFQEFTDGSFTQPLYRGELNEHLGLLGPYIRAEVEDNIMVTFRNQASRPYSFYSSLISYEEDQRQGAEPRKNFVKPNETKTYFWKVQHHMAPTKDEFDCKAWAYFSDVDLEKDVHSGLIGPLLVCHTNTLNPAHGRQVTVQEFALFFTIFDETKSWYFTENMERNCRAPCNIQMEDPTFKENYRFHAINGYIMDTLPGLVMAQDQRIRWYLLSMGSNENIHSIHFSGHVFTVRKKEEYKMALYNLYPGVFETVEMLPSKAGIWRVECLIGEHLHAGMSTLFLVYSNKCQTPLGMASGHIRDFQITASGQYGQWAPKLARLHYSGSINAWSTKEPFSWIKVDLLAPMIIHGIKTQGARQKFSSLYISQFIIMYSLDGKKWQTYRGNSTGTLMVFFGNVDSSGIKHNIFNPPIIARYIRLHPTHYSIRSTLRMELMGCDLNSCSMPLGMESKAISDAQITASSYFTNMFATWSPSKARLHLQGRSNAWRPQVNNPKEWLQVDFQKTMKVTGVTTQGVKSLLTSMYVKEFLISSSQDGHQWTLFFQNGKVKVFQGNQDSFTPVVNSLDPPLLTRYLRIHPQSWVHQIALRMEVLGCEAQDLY

[4] = target: T4, factor VIIIa A1/A3C1C2 dimer, wild type (human, UniProt P00451 20-391; P00451 1709-2351)
T4 sequence 1: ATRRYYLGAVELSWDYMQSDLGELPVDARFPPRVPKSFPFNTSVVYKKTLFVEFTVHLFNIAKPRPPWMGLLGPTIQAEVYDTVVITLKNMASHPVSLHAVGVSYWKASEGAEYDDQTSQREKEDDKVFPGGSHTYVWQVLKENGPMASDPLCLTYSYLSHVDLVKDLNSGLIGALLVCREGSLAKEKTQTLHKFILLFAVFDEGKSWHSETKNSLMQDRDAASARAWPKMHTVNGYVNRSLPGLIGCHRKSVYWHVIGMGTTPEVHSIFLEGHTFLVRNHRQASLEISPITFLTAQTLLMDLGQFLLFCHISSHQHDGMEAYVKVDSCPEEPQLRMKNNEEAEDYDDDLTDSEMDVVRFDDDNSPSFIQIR
T4 sequence 2: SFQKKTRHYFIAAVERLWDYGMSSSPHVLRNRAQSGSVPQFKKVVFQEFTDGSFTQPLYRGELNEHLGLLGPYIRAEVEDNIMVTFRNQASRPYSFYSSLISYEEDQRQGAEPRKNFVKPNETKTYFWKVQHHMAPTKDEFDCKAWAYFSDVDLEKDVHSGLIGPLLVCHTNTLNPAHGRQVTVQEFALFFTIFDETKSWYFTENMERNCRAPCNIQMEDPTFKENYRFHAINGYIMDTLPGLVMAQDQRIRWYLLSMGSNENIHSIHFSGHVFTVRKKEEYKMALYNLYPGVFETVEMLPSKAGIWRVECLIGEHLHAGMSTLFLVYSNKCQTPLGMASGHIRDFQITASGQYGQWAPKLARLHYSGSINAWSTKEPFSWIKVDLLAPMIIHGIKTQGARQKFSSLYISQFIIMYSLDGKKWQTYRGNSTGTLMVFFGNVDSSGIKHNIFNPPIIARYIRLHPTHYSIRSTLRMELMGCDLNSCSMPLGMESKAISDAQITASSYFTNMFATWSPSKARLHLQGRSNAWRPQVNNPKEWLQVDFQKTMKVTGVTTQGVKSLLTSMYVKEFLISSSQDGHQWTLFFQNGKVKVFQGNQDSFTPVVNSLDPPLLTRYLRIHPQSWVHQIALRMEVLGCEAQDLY

Factor VIIIa decay rate relative to wild type, FIXa (+) [1]: 2.11 relative to wild type
Factor VIIIa decay rate, FIXa (+) [1]: 0.0238 min⁻¹
Factor VIIIa decay rate relative to wild type, FIXa (+) [2]: 1.85 relative to wild type
Factor VIIIa decay rate, FIXa (+) [2]: 0.0208 min⁻¹
Factor VIIIa decay rate relative to wild type, FIXa (+) [3]: 1.86 relative to wild type
Factor VIIIa decay rate, FIXa (+) [3]: 0.021 min⁻¹
Factor VIIIa decay rate relative to wild type, FIXa (+) [4]: 1 relative to wild type
Factor VIIIa decay rate relative to wild type, FIXa (-) [4]: 1 relative to wild type
Factor VIIIa decay rate, FIXa (+) [4]: 0.0113 min⁻¹
Factor VIIIa decay rate, FIXa (-) [4]: 0.0631 min⁻¹
B1: factor VIIIa A2 subunit, wild type (other)
chain: SVAKKHPKTWVHYIAAEEEDWDYAPLVLAPDDRSYKSQYLNNGPQRIGRKYKKVRFMAYTDETFKTREAIQHESGILGPLLYGEVGDTLLIIFKNQASRPYNIYPHGITDVRPLYSRRLPKGVKHLKDFPILPGEIFKYKWTVTVEDGPTKSDPRCLTRYYSSFVNMERDLASGLIGPLLICYKESVDQRGNQIMSDKRNVILFSVFDENRSWYLTENIQRFLPNPAGVQLEDPEFQASNIMHSINGYVFDSLQLSVCLHEVAYWYILSIGAQTDFLSVFFSGYTFKHKMVYEDTLTLFPFSGETVFMSMENPGLWILGCHNSDFRNRGMTALLKVSSCDKNTGDYYEDSYEDISAYLLSKNNAIEPR
